The values that follow come from patent US20220380471A1.

The target in test [1] is T1, mouse B7H3-His (mouse) (UniProt Q8VE98).
T1 sequence (looked up): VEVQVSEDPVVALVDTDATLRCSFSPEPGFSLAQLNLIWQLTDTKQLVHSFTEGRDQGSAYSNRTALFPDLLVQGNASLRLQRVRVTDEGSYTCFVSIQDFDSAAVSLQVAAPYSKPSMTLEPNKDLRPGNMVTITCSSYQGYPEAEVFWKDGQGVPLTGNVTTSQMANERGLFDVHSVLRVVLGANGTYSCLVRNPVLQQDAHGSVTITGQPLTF
In words: ELISA; row Mouse-2 (mB7H3); well 3 of 3.

Test [2] concerns the target T2, rat B7H3-His (rat) (UniProt Q7TPB4).
T2 sequence (looked up): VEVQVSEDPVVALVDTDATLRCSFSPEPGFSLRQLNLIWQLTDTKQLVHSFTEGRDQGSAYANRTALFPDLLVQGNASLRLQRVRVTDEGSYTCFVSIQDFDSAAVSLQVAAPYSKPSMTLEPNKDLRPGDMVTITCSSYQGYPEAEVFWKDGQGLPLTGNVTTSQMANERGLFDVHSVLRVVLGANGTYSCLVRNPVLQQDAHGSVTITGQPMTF
Nature of the test: ELISA, purified VHH. (In general: ELISA stands for enzyme-linked immunosorbent assay.)

For test [3], the target named is T1, mouse B7H3-His (mouse). In words: ELISA; row Mouse-1 (msB7H3); well 1 of 3.
In test [4] the target is T2, rat B7H3-His (rat). In words: ELISA; row Rat; well 3 of 3.
The target of test [5] is T2, rat B7H3-His (rat). Nature of the test: phage ELISA, cross-species.
Test [6] addresses T1, mouse B7H3-His (mouse). In words: phage ELISA, cross-species.
The target of test [7] is T1, mouse B7H3-His (mouse). In words: ELISA; row Mouse-1 (msB7H3); well 3 of 3.
Test [8] has as its target T1, mouse B7H3-His (mouse). In words: ELISA; row Mouse-1 (msB7H3); well 2 of 3.
Test [9] concerns the target T2, rat B7H3-His (rat). In words: ELISA; row Rat; well 1 of 3.
Test [10] addresses T1, mouse B7H3-His (mouse). Nature of the test: ELISA; row Mouse-2 (mB7H3); well 2 of 3.
Test [11] deals with T2, rat B7H3-His (rat). Nature of the test: ELISA; row Rat; well 2 of 3.
The target of test [12] is T1, mouse B7H3-His (mouse). In words: ELISA; row Mouse-2 (mB7H3); well 1 of 3.

B1: RWC4 (VHH)
VHH: EVQLVESGGGSVQAGGSLRLSCVASEDSTSAMCMGWFRQAPGKEREGVACINPTGEVTWYGDSVKGRFTISRDTVKKIVYLQMNSLKPEDTAMYYCAARVTYGGDWSTDTDYEYWGQGTQVTVSS
Turning to B1, the ELISA reading (name not given) in test [1] is 0.0468; in test [3], 0.0616; in [4] it was 0.0685; in test [7] it was 0.0488; in test [8] it was 0.0533; in [9], 0.0683. Further, the values for the ELISA reading (name not given) in [10], in [11] and in test [12] were 0.0498, 0.0688 and 0.079, respectively. Besides, the ELISA signal in [2] is 0.158; in test [5], 0.797; in test [6], 0.366.

B2: RWB12 (VHH)
VHH: QVQLVESGGGSVQVGGSLRLSCAASGFTYNSYSVGWFRQAPGKEREGVAAINSGGSSTYYAASVKGRFTISRDNAKNTVYLQMNSLKPEDTAMYYCAARSPSPLTFQTRTLREDSYNYWGQGTQVTVSS
Take B2: the ELISA reading (name not given) in [1] is 0.0764; in test [3], 0.0714; in test [7], 0.0702; in [8] it was 0.0683; in [10], 0.0771; in test [12] it was 0.0742. Also, the ELISA signal in test [6] was found to be 1.71.
